Data on one molecule can be found in article PMC1079850 (2005).

This experiment has as its target Tsr (Escherichia coli, UniProt P02942).

Chain of Tsr (P02942 whole entry): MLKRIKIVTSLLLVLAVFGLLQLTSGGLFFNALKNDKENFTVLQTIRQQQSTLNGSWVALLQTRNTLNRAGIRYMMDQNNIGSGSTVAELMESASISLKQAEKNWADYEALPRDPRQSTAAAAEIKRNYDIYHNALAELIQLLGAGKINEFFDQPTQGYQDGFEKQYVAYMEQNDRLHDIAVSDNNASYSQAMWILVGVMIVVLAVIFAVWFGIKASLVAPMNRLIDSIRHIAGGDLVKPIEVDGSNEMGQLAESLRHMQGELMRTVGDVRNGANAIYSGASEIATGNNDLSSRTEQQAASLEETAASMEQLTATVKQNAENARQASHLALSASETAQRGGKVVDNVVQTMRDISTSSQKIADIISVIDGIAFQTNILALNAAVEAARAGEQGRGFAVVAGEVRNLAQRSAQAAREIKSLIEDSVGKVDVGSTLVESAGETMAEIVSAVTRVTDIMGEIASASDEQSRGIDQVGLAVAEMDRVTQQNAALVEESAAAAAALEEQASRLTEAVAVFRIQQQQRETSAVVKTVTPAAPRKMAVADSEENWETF

B1: CheW (protein)
chain: MTGMTNVTKLASEPSGQEFLVFTLGDEEYGIDILKVQEIRGYDQVTRIANTPAFIKGVTNLRGVIVPIVDLRIKFSQVDVDYNDNTVVIVLNLGQRVVGIVVDGVSDVLSLTAEQIRPAPEFAVTLSTEYLTGLGALGDRMLILVNIEKLLNSEEMALLDSAASEVA
One may read the Kd as the free concentration of one partner at which half of the binding sites on the other are occupied at equilibrium, for simple one-to-one binding. Read a high Kd as weaker binding. B1: the dissociation constant Kd is around 10 µM.
